{"source": "patent US20230085439A1", "key": {"[1]": {"target": "hMPV 130-BV (human metapneumovirus)", "assay": "biolayer interferometry, hMPV 130-BV on anti-penta-HIS biosensors; unit inferred"}, "[2]": {"target": "trimeric hMPV B2 F protein treated with trypsin (human metapneumovirus)", "assay": "ELISA on coated antigen, mAb titrated; panel hMPV B2 F trimer (trypsin), key 6"}, "[3]": {"target": "monomeric hMPV B2 F protein treated with trypsin (human metapneumovirus)", "assay": "ELISA on coated antigen, mAb titrated; panel hMPV B2 F monomer (trypsin), key 6"}, "[4]": {"target": "pre-fusion RSV F protein A2 SC-TM (respiratory syncytial virus) (UniProt P03420)", "assay": "ELISA on coated antigen, mAb titrated; EC50 box, key 6"}}}
{"substance": "101F Fab", "values": [{"measurement": "Kd", "setting": "[1]", "result": 53, "unit": "nM"}]}
{"substance": "DS7 (antibody)", "values": [{"measurement": "EC50", "setting": "[2]", "result": 0.18, "unit": "µg/mL"}, {"measurement": "EC50", "setting": "[3]", "result": 0.1, "unit": "µg/mL"}]}
{"substance": "MPE8 (antibody)", "values": [{"measurement": "EC50", "setting": "[4]", "result": 0.087, "unit": "µg/mL"}]}
